Target: T1, E. coli derived recombinant human BMP-2 (human, UniProt P12643 283-396)
T1 construct: Bone morphogenetic protein 2, human, recombinant from E. coli; also called bone morphogenetic protein 2
Assay: SPR; ProteON XPR36, GLC chip; BMP-2 immobilised by amine coupling (1000-2000 RU), CV2 VWC1 proteins as analytes in six concentrations; 25 °C, HBST500 (10 mM HEPES pH 7.4, 500 mM NaCl, 0.005% Tween20); global Langmuir 1:1 fit, KD = koff/kon, or from dose-dependency of equilibrium binding for weak or fast binders; apparent KD
Details: both partners purified

T1 sequence (P12643 283-396): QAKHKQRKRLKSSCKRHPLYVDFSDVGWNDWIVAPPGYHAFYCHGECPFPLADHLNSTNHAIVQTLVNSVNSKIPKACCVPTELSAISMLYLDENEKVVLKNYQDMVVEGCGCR

Kd: ≥ 3.3 µM | koff: ≥ 0.05 s⁻¹
B1: CV2 VWC1 C9A/C31A (domain or fragment)
chain: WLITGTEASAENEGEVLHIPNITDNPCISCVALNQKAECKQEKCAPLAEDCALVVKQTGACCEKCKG
modifications: Mature numbering = entity position minus 3 (C9A/C31A = C12A/C34A). Introduced N-terminal Trp kept; vector Gly-Ser left out. Remaining native disulfides, including Cys26-Cys60, Cys43-Cys61 and …

Reference: article PMC6270503, “The Clip-Segment of the von Willebrand Domain 1 of the BMP Modulator Protein Crossveinless 2 Is Preformed” (Molecules, 2013)
